For 94 variants, protein stability index results are on record in the supplement of paper PMC10567573.

B1: ESRRA (parent)
chain: SLPLQDELAFAEDLVLDEEGARAA
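Also: lentivirally expressed fusions sorted by FACS into six bins by GFP to DsRed ratio, PSI derived from sequencing read proportions per bin multiplied by bin number.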

The series covers variants of B1. Put plainly: protein stability index of a GFP-peptide fusion (GPS, HEK-293T) (PSI 1-6); higher = more stable. Particulars: c terminus: a fixed tail appended.
Turning to SLPLQDELAFAEDLVLDEEGLRAA, the protein stability index was 3.63.

For the variant SLPLQDELAFAEDLVLDEEGERAA, the protein stability index came to 3.38.

For the variant SLPLQDELAFAEDLVLDEEGMRAA, the protein stability index is 3.61. For the variant SLPLQDELAFAEDLVLDEEGVRAA, the protein stability index came out at 3.14. Regarding SLPLQDELAFAEDLVLDEEGDRAA, the protein stability index amounted to 3.81. As for SLPLQDELAFAEDLVLDEEGKRAA, the protein stability index was 2.66. In the case of SLPLQDELAFAEDLVLDEEGSRAA it was 4.05; in that of SLPLQDELAFAEDLVLDEEGWRAA, 3.2; in that of SLPLQDELAFAEDLVLDEEGNRAA, 2.91.

As for SLPLQDELAFAEDLVLDEEGIRAA, the protein stability index is 2.87. Consider SLPLQDELAFAEDLVLDEEGQRAA, for which the protein stability index was 2.29. Turning to SLPLQDELAFAEDLVLDEEGRRAA, the protein stability index was found to be 3.41. For the variant SLPLQDELAFAEDLVLDEEGPRAA, the protein stability index came to 3.14. On to SLPLQDELAFAEDLVLDEEGGRAA, for which the protein stability index came out at 2.77. With SLPLQDELAFAEDLVLDEEGCRAA, the protein stability index amounted to 3.01.

Take SLPLQDELAFAEDLVLDEEGYRAA: the protein stability index worked out at 2.63. In the case of SLPLQDELAFAEDLVLDEEGTRAA it was 3.75; in that of SLPLQDELAFAEDLVLDEEGHRAA, 3.09; in that of SLPLQDELAFAEDLVLDEEYARAA, 2.44. For SLPLQDELAFAEDLVLDEESARAA, the protein stability index came out at 4.04. In the case of SLPLQDELAFAEDLVLDEELARAA it was 3.04; in that of SLPLQDELAFAEDLVLDEEHARAA, 2.9. In the case of SLPLQDELAFAEDLVLDEEWARAA, the protein stability index was 2.67.

In the case of SLPLQDELAFAEDLVLDEEFARAA, the protein stability index was determined as 3.47. In the case of SLPLQDELAFAEDLVLDEEQARAA it was 3.93; in that of SLPLQDELAFAEDLVLDEETARAA, 4.05; in that of SLPLQDELAFAEDLVLDEEVARAA, 4. In the case of SLPLQDELAFAEDLVLDEEIARAA, the protein stability index turned out to be 3.08.

For SLPLQDELAFAEDLVLDEEAARAA, the protein stability index came out at 4.48.

Take SLPLQDELAFAEDLVLDEEEARAA: the protein stability index stood at 5.11. Regarding SLPLQDELAFAEDLVLDEEMARAA, the protein stability index amounted to 2.51. For the variant SLPLQDELAFAEDLVLDEECARAA, the protein stability index came to 2.6.

SLPLQDELAFAEDLVLDEENARAA: the protein stability index came out at 3.52. Consider SLPLQDELAFAEDLVLDEEDARAA, for which the protein stability index turned out to be 3.46.

SLPLQDELAFAEDLVLDEEPARAA: the protein stability index was 3.7. In the case of SLPLQDELAFAEDLVLDEERARAA it was 3.38; in that of SLPLQDELAFAEDLVLDEEKARAA, 3.4; in that of SLPLQDELAFAEDLVLDEEGARRA, 2.83. On to SLPLQDELAFAEDLVLDEEGARSA, for which the protein stability index came to 3.42. For SLPLQDELAFAEDLVLDEEGARIA, the protein stability index is 2.87.

Take SLPLQDELAFAEDLVLDEEGARTA: the protein stability index was 3.08. With SLPLQDELAFAEDLVLDEEGARMA, the protein stability index came to 2.43. SLPLQDELAFAEDLVLDEEGARQA: the protein stability index amounted to 3.19. As for SLPLQDELAFAEDLVLDEEGAREA, the protein stability index stood at 3.66. In the case of SLPLQDELAFAEDLVLDEEGARVA it was 3.21; in that of SLPLQDELAFAEDLVLDEEGARGA, 4.15; in that of SLPLQDELAFAEDLVLDEEGARDA, 3.39. For SLPLQDELAFAEDLVLDEEGARWA, the protein stability index turned out to be 2.44. With SLPLQDELAFAEDLVLDEEGARCA, the protein stability index stood at 2.98.

SLPLQDELAFAEDLVLDEEGARNA: the protein stability index was 3.21. Turning to SLPLQDELAFAEDLVLDEEGARYA, the protein stability index came out at 2.62.

Consider SLPLQDELAFAEDLVLDEEGARLA, for which the protein stability index was determined as 2.56.

With SLPLQDELAFAEDLVLDEEGARPA, the protein stability index was 3.35. As to SLPLQDELAFAEDLVLDEEGARKA, the protein stability index amounted to 2.65. Regarding SLPLQDELAFAEDLVLDEEGARHA, the protein stability index came to 2.95. As for SLPLQDELAFAEDLVLDEEGARFA, the protein stability index was found to be 2.89.

On to SLPLQDELAFAEDLVLDELGARAA, for which the protein stability index is 2.15. Consider SLPLQDELAFAEDLVLDESGARAA, for which the protein stability index is 2.79. Consider SLPLQDELAFAEDLVLDEYGARAA, for which the protein stability index amounted to 2.77. Take SLPLQDELAFAEDLVLDERGARAA: the protein stability index was 2.02.

As to SLPLQDELAFAEDLVLDEMGARAA, the protein stability index stood at 1.85.

In the case of SLPLQDELAFAEDLVLDEVGARAA, the protein stability index came to 2.83. Take SLPLQDELAFAEDLVLDEHGARAA: the protein stability index worked out at 2.33.

Take SLPLQDELAFAEDLVLDEIGARAA: the protein stability index stood at 1.74. For the variant SLPLQDELAFAEDLVLDEKGARAA, the protein stability index was found to be 2.89. Consider SLPLQDELAFAEDLVLDEWGARAA, for which the protein stability index worked out at 2.52. In the case of SLPLQDELAFAEDLVLDEQGARAA, the protein stability index turned out to be 2.56. Take SLPLQDELAFAEDLVLDECGARAA: the protein stability index stood at 2.79. Take SLPLQDELAFAEDLVLDETGARAA: the protein stability index was determined as 2.71.

SLPLQDELAFAEDLVLDEGGARAA: the protein stability index worked out at 1.75. As for SLPLQDELAFAEDLVLDEFGARAA, the protein stability index was 2.25.

Take SLPLQDELAFAEDLVLDEAGARAA: the protein stability index stood at 1.86.

For SLPLQDELAFAEDLVLDENGARAA, the protein stability index is 2.63. SLPLQDELAFAEDLVLDEPGARAA: the protein stability index worked out at 4.02. For the variant SLPLQDELAFAEDLVLDEDGARAA, the protein stability index was found to be 2.79.

Regarding SLPLQDELAFAEDLVLDFEGARAA, the protein stability index amounted to 3.24. As to SLPLQDELAFAEDLVLDAEGARAA, the protein stability index is 2.7. Take SLPLQDELAFAEDLVLDQEGARAA: the protein stability index was found to be 2.8. Regarding SLPLQDELAFAEDLVLDNEGARAA, the protein stability index came to 3.68. For the variant SLPLQDELAFAEDLVLDKEGARAA, the protein stability index was found to be 4.48. Regarding SLPLQDELAFAEDLVLDVEGARAA, the protein stability index came to 3.6.

With SLPLQDELAFAEDLVLDMEGARAA, the protein stability index was determined as 2.42.

As for SLPLQDELAFAEDLVLDYEGARAA, the protein stability index was 2.99. Turning to SLPLQDELAFAEDLVLDGEGARAA, the protein stability index is 2.93.

Turning to SLPLQDELAFAEDLVLDLEGARAA, the protein stability index was found to be 3.11. On to SLPLQDELAFAEDLVLDWEGARAA, for which the protein stability index came to 2.49. As to SLPLQDELAFAEDLVLDSEGARAA, the protein stability index was determined as 2.85. Consider SLPLQDELAFAEDLVLDHEGARAA, for which the protein stability index was determined as 2.56. Regarding SLPLQDELAFAEDLVLDPEGARAA, the protein stability index is 2.56. In the case of SLPLQDELAFAEDLVLDREGARAA it was 4.03; in that of SLPLQDELAFAEDLVLDDEGARAA, 4.8; in that of SLPLQDELAFAEDLVLDIEGARAA, 3.81. Consider SLPLQDELAFAEDLVLDCEGARAA, for which the protein stability index turned out to be 2.31. As to SLPLQDELAFAEDLVLDTEGARAA, the protein stability index was 2.79.
